Laboratory results reported in the supplement of paper PMC5998384.

Assays:
HeLa Kyoto [1] = test: melting temperature (median over replicates), in situ; higher = more thermally stable
HeLa Kyoto [2] = test: thermal stability score vs G1/S (z-score of summed log2 fold changes over temperatures); higher = more thermally stable than in G1/S
HeLa Kyoto [3] = test: solubility in G1/S (NP-40 vs SDS abundance) (log2 ratio); higher = more soluble; conditions: cell cycle stage: G1/S
HeLa Kyoto [4] = test: solubility change mitosis vs G1/S (difference of NP-40 vs SDS log2 ratios) (log2 ratio difference); higher = more soluble in mitosis
[5] = cell cycle stage: early G1 (4.5 h after nocodazole release)
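For melting temperature (median over replicates), in situ in this document: HeLa Kyoto cells synchronized by double thymidine or nocodazole block, proteins quantified by TMT10plex mass spectrometry, three independent biological replicates.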
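For solubility change mitosis vs G1/S (difference of NP-40 vs SDS log2 ratios) in this document: synchronized HeLa Kyoto cells (double thymidine block for G1/S, nocodazole release for mitosis), protein amounts in NP-40 versus SDS lysates quantified by mass spectrometry, three biological replicates.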
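For solubility in G1/S (NP-40 vs SDS abundance) in this document: HeLa Kyoto cells arrested at G1/S by double thymidine block, proteins quantified by TMT10plex mass spectrometry in mild NP-40 versus SDS extracts, three biological replicates.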
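For thermal stability score vs G1/S (z-score of summed log2 fold changes over temperatures) in this document: synchronized HeLa Kyoto cells, proteins quantified by TMT10plex mass spectrometry, three biological replicates, mitosis taken 0.5 h after nocodazole release, G1/S directly after double thymidine block.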

Row | Sequence | melting temperature (HeLa Kyoto [1]; cell cycle stage: G1/S) [°C] | melting temperature (HeLa Kyoto [1]; cell cycle stage: mitosis) [°C] | thermal stability score (HeLa Kyoto [2]; [5]) | thermal stability score (HeLa Kyoto [2]; cell cycle stage: mitosis) | solubility in G1/S (log2) (HeLa Kyoto [3]) | solubility change mitosis (log2) (HeLa Kyoto [4])
1 | MSKYKLIMLRHGEGAWNKENRFCSWVDQKLNSEGMEEARNCGKQLKALNFEFDLVFTSVLNRSIHTAWLILEELGQEWVPVESSWRLNERHYGALIGLNREQMALNHGEEQVRLWRRSYNVTPPPIEESHPYYQEIYNDRRYKVCDVPLDQLPRSESLKDVLERLLPYWNERIAPEVLRGKTILISAHGNSSRALLKHLEGISDEDIINITLPTGVPILLELDENLRAVGPHQFLGDQEAIQAAIKKVEDQGKVKQAKK [BPGM] | 53.1 | 55.1 | 1.51 | 0.348 | 0.328 | -0.0036
2 | MSLEDPFFVVRGEVQKAVNTARGLYQRWCELLQESAAVGREELDWTTNELRNGLRSIEWDLEDLEETIGIVEANPGKFKLPAGDLQERKVFVERMREAVQEMKDHMVSPTAVAFLERNNREILAGKPAAQKSPSDLLDASAVSATSRYIEEQQATQQLIMDEQDQQLEMVSGSIQVLKHMSGRVGEELDEQGIMLDAFAQEMDHTQSRMDGVLRKLAKVSHMTSDRRQWCAIAVLVGVLLLVLILLFSL [STX10] | 52.1 | 51.6 | 2.01 | 0.0715 | -0.293 | -0.107
3 | MSLFGTTSGFGTSGTSMFGSATTDNHNPMKDIEVTSSPDDSIGCLSFSPPTLPGNFLIAGSWANDVRCWEVQDSGQTIPKAQQMHTGPVLDVCWSDDGSKVFTASCDKTAKMWDLSSNQAIQIAQHDAPVKTIHWIKAPNYSCVMTGSWDKTLKFWDTRSSNPMMVLQLPERCYCADVIYPMAVVATAERGLIVYQLENQPSEFRRIESPLKHQHRCVAIFKDKQNKPTGFALGSIEGRVAIHYINPPNPAKDNFTFKCHRSNGTNTSAPQDIYAVNGIAFHPVHGTLATVGSDGRFSFWDKDARTKLKTSEQLDQPISACCFNHNGNIFAYASSYDWSKGHEFYNPQKKNYIFLRNAAEELKPRNKK [RAE1] | 49.8 | 49.1 | -1.34 | -0.473 | -0.0787 | 0.128
4 | MSLGRLCRLLKPALLCGALAAPGLAGTMCASRDDWRCARSMHEFSAKDIDGHMVNLDKYRGFVCIVTNVASQUGKTEVNYTQLVDLHARYAECGLRILAFPCNQFGKQEPGSNEEIKEFAAGYNVKFDMFSKICVNGDDAHPLWKWMKIQPKGKGILGNAIKWNFTKFLIDKNGCVVKRYGPMEEPLVIEKDLPHYF [GPX4] | 56.3 | 56.3 | -2.51 | -2.1 | 0.136 | -0.141
5 | MSLHGKRKEIYKYEAPWTVYAMNWSVRPDKRFRLALGSFVEEYNNKVQLVGLDEESSEFICRNTFDHPYPTTKLMWIPDTKGVYPDLLATSGDYLRVWRVGETETRLECLLNNNKNSDFCAPLTSFDWNEVDPYLLGTSSIDTTCTIWGLETGQVLGRVNLVSGHVKTQLIAHDKEVYDIAFSRAGGGRDMFASVGADGSVRMFDLRHLEHSTIIYEDPQHHPLLRLCWNKQDPNYLATMAMDGMEVVILDVRVPCTPVARLNNHRACVNGIAWAPHSSCHICTAADDHQALIWDIQQMPRAIEDPILAYTAEGEINNVQWASTQPDWIAICYNNCLEILRV [DCAF7] | 52.2 | 52.5 | 0.282 | -1.1 | -0.0563 | -0.147
6 | MSLICSISNEVPEHPCVSPVSNHVYERRLIEKYIAENGTDPINNQPLSEEQLIDIKVAHPIRPKPPSATSIPAILKALQDEWDAVMLHSFTLRQQLQTTRQELSHALYQHDAACRVIARLTKEVTAAREALATLKPQAGLIVPQAVPSSQPSVVGAGEPMDLGELVGMTPEIIQKLQDKATVLTTERKKRGKTVPEELVKPEELSKYRQVASHVGLHSASIPGILALDLCPSDTNKILTGGADKNVVVFDKSSEQILATLKGHTKKVTSVVFHPSQDLVFSASPDATIRIWSVPNASCVQVVRAHESAVTGLSLHATGDYLLSSSDDQYWAFSDIQTGRVLTKVTDETSGCSLTCAQFHPDGLIFGTGTMDSQIKIWDLKERTNVANFPGHSGPITSIAFSENGYYLATAADDSSVKLWDLRKLKNFKTLQLDNNFEVKSLIFDQSGTYLALGGTDVQIYICKQWTEILHFTEHSGLTTGVAFGHHAKFIASTGMDRSLKFYSL [PRPF19] | 56.5 | 54 | -0.506 | -3.39 | -0.473 | 0.214
7 | MSLKLQASNVTNKNDPKSINSRVFIGNLNTALVKKSDVETIFSKYGRVAGCSVHKGYAFVQYSNERHARAAVLGENGRVLAGQTLDINMAGEPKPDRPKGLKRAASAIYSGYIFDYDYYRDDFYDRLFDYRGRLSPVPVPRAVPVKRPRVTVPLVRRVKTNVPVKLFARSTAVTTSSAKIKLKSSELQAIKTELTQIKSNIDALLSRLEQIAAEQKANPDGKKKGDGGGAGGGGGGGGSGGGGSGGGGGGGSSRPPAPQENTTSEAGLPQGEARTRDDGDEEGLLTHSEEELEHSQDTDADDGALQ [RALY] | 47.1 | 49.4 | 2.9 | 8.45 | 0.116 | 0.275
8 | MSLKPRVVDFDETWNKLLTTIKAVVMLEYVERATWNDRFSDIYALCVAYPEPLGERLYTETKIFLENHVRHLHKRVLESEEQVLVMYHRYWEEYSKGADYMDCLYRYLNTQFIKKNKLTEADLQYGYGGVDMNEPLMEIGELALDMWRKLMVEPLQAILIRMLLREIKNDRGGEDPNQKVIHGVINSFVHVEQYKKKFPLKFYQEIFESPFLTETGEYYKQEASNLLQESNCSQYMEKVLGRLKDEEIRCRKYLHPSSYTKVIHECQQRMVADHLQFLHAECHNIIRQEKKNDMANMYVLLRAVSTGLPHMIQELQNHIHDEGLRATSNLTQENMPTLFVESVLEVHGKFVQLINTVLNGDQHFMSALDKALTSVVNYREPKSVCKAPELLAKYCDNLLKKSAKGMTENEVEDRLTSFITVFKYIDDKDVFQKFYARMLAKRLIHGLSMSMDSEEAMINKLKQACGYEFTSKLHRMYTDMSVSADLNNKFNNFIKNQDTVIDLGISFQIYVLQAGAWPLTQAPSSTFAIPQELEKSVQMFELFYSQHFSGRKLTWLHYLCTGEVKMNYLGKPYVAMVTTYQMAVLLAFNNSETVSYKELQDSTQMNEKELTKTIKSLLDVKMINHDSEKEDIDAESSFSLNMNFSSKRTKFKITTSMQKDTPQEMEQTRSAVDEDRKMYLQAAIVRIMKARKVLRHNALIQEVISQSRARFNPSISMIKKCIEVLIDKQYIERSQASADEYSYVA [CUL2] | 54.1 | 53.6 | -0.0958 | -0.6 | -0.219 | -0.148
9 | MSLLRSLRVFLVARTGSYPAGSLLRQSPQPRHTFYAGPRLSASASSKELLMKLRRKTGYSFVNCKKALETCGGDLKQAEIWLHKEAQKEGWSKAAKLQGRKTKEGLIGLLQEGNTTVLVEVNCETDFVSRNLKFQLLVQQVALGTMMHCQTLKDQPSAYSKGFLNSSELSGLPAGPDREGSLKDQLALAIGKLGENMILKRAAWVKVPSGFYVGSYVHGAMQSPSLHKLVLGKYGALVICETSEQKTNLEDVGRRLGQHVVGMAPLSVGSLDDEPGGEAETKMLSQPYLLDPSITLGQYVQPQGVSVVDFVRFECGEGEEAAETE [TSFM] | 47.6 | 48.9 | -0.0634 | 3.2 | 0.283 | -0.0285
10 | MSLNPPIFLKRSEENSSKFVETKQSQTTSIASEDPLQNLCLASQEVLQKAQQSGRSKCLKCGGSRMFYCYTCYVPVENVPIEQIPLVKLPLKIDIIKHPNETDGKSTAIHAKLLAPEFVNIYTYPCIPEYEEKDHEVALIFPGPQSISIKDISFHLQKRIQNNVRGKNDDPDKPSFKRKRTEEQEFCDLNDSKCKGTTLKKIIFIDSTWNQTNKIFTDERLQGLLQVELKTRKTCFWRHQKGKPDTFLSTIEAIYYFLVDYHTDILKEKYRGQYDNLLFFYSFMYQLIKNAKCSGDKETGKLTH [DTWD1] | 50.9 | 50.6 | 1.51 | 1.96 | 0.19 | -0.213
11 | MSLRIDVDTNFPECVVDAGKVTLGTQQRQEMDPRLREKQNEIILRAVCALLNSGGGIIKAEIENKGYNYERHGVGLDVPPIFRSHLDKMQKENHFLIFVKSWNTEAGVPLATLCSNLYHRERTSTDVMDSQEALAFLKCRTQTPTNINVSNSLGPQAAQGSVQYEGNINVSAAALFDRKRLQYLEKLNLPESTHVEFVMFSTDVSHCVKDRLPKCVSAFANTEGGYVFFGVHDETCQVIGCEKEKIDLTSLRASIDGCIKKLPVHHFCTQRPEIKYVLNFLEVHDKGALRGYVCAIKVEKFCCAVFAKVPSSWQVKDNRVRQLPTREWTAWMMEADPDLSRCPEMVLQLSLSSATPRSKPVCIHKNSECLKEQQKRYFPVFSDRVVYTPESLYKELFSQHKGLRDLINTEMRPFSQGILIFSQSWAVDLGLQEKQGVICDALLISQNNTPILYTIFSKWDAGCKGYSMIVAYSLKQKLVNKGGYTGRLCITPLVCVLNSDRKAQSVYSSYLQIYPESYNFMTPQHMEALLQSLVIVLLGFKSFLSEELGSEVLNLLTNKQYELLSKNLRKTRELFVHGLPGSGKTILALRIMEKIRNVFHCEPANILYICENQPLKKLVSFSKKNICQPVTRKTFMKNNFEHIQHIIIDDAQNFRTEDGDWYGKAKFITQTARDGPGVLWIFLDYFQTYHLSCSGLPPPSDQYPREEINRVVRNAGPIANYLQQVMQEARQNPPPNLPPGSLVMLYEPKWAQGVPGNLEIIEDLNLEEILIYVANKCRFLLRNGYSPKDIAVLFTKASEVEKYKDRLLTAMRKRKLSQLHEESDLLLQIGDASDVLTDHIVLDSVCRFSGLERNIVFGINPGVAPPAGAYNLLLCLASRAKRHLYILKASV [SLFN5] | 48.5 | 49.4 | 1.54 | 2.13 | -0.0689 | -0.0585
12 | MSLRQRLAQLVGRLQDPQKVARFQRLCGVEAPPRRSADRREDEKAEAPLAGDPRLRGRQPGAPGGPQPPGSDRNQCPAKPDGGGAPNGVRNGLAAELGPASPRRAGALRRNSLTGEEGQLARVSNWPLYCLFCFGTELGNELFYILFFPFWIWNLDPLVGRRLVVIWVLVMYLGQCTKDIIRWPRPASPPVVKLEVFYNSEYSMPSTHAMSGTAIPISMVLLTYGRWQYPLIYGLILIPCWCSLVCLSRIYMGMHSILDIIAGFLYTILILAVFYPFVDLIDNFNQTHKYAPFIIIGLHLALGIFSFTLDTWSTSRGDTAEILGSGAGIACGSHVTYNMGLVLDPSLDTLPLAGPPITVTLFGKAILRILIGMVFVLIIRDVMKKITIPLACKIFNIPCDDIRKARQHMEVELPYRYITYGMVGFSITFFVPYIFFFIGIS [SGPP1] | 53.9 | 53.4 | 1.45 | 1.19 | -0.0125 | -0.122
13 | MSLSDWHLAVKLADQPLTPKSILRLPETELGEYSLGGYSISFLKQLIAGKLQESVPDPELIDLIYCGRKLKDDQTLDFYGIQPGSTVHVLRKSWPEPDQKPEPVDKVAAMREFRVLHTALHSSSSYREAVFKMLSNKESLDQIIVATPGLSSDPIALGVLQDKDLFSVFADPNMLDTLVPAHPALVNAIVLVLHSVAGSAPMPGTDSSSRSMPSSSYRDMPGGFLFEGLSDDEDDFHPNTRSTPSSSTPSSRPASLGYSGAAGPRPITQSELATALALASTPESSSHTPTPGTQGHSSGTSPMSSGVQSGTPITNDLFSQALQHALQASGQPSLQSQWQPQLQQLRDMGIQDDELSLRALQATGGDIQAALELIFAGGAP [UBL7] | 50.8 | 50.8 | -0.52 | -0.245 | 0.396 | 0.156
